Substrate in the data set: CCOC(=O)C(=O)CCc1ccccc1
The experiment in a line: purified protein. In kind it is biochemical, Lodderomyces parapsilosis. To be noted: apparent constant, free enzymes (CpCR with GDH), NADPH co-substrate, pH 7.0, 30 °C, OPBE 10-50 mM.

B1: CpCR (Lodderomyces parapsilosis) (protein)
chain: MTKAVPDKFQGFAVSDPKNWNRPKLASYERKQINPHDVVLKNEVCGLCYSDIHTLSAGWQPLQRDNLVVGHEIIGEVIAVGDEVTEFKVGDRVGIGAASSSCRSCQRCDSDNEQYCKQGAATYNSKDVRSNNYVTQGGYSSHSIADEKFVFAIPEDLPSSYGAPLMCAGITVFSPLIRNLGLDARGKNVGIIGIGGLGHLALQFANAMGANVTAFSRSSSKKEQAMKLGAHDFVATGEDKTWYKNYDDHFDFILNCASGIDGLNLSEYLSTLKVDKKFVSVGLPPSEDKFEVSPFTFLQQGASFGSSLLGSKTEVKEMLNLAAKHNVRPMIEEVPISEENCAKALDRCHAGDVRYRFVFTDFDKAFKA
notes: full length, 6xHis tag, recombinant in E. coli BL21(DE3), 41 kDa; free (unassembled) enzyme, in the free bi-enzyme system with GDH
B1: the Km – broadly, the substrate concentration at which the rate is half of its maximum – amounted to 23.94 mM; the kcat (commonly the number of substrate molecules converted per active site and unit of time at saturation) is 1.76 s⁻¹; the kcat/Km (usually the turnover number divided by the Michaelis constant) came out at 74 M⁻¹ s⁻¹.

The values are drawn from PMC9855569, “Construction of Bi-Enzyme Self-Assembly Clusters Based on SpyCatcher/SpyTag for the Efficient Biosynthesis of (R)-Ethyl 2-hydroxy-4-phenylbutyrate” (Biomolecules, 2023).
